Tests used:
Experiment in all cases: holdup assay
Parameters in all cases: key: below the threshold = too weak to quantify, mostly under pKd 3.1 to 4
PDZD7_3, Q9H5P4 = biological target: T1, PDZD7_3, Q9H5P4
T1 sequence (Q9H5P4 857-944, limits assumed, looked up): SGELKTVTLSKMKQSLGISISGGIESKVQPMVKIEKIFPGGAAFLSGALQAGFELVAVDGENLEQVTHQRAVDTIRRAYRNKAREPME

DLG2_2, Q15700 = biological target: DLG2_2, Q15700
PDZRN4_1, Q6ZMN7 = biological target: PDZRN4_1, Q6ZMN7
GRIP1_5, Q9Y3R0 = biological target: T2, GRIP1_5, Q9Y3R0
T2 sequence (Q9Y3R0 568-668, limits assumed, looked up): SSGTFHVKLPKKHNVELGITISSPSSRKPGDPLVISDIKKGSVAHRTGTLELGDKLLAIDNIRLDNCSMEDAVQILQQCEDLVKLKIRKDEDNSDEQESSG

LNX2_2, Q8N448 = biological target: T3, LNX2_2, Q8N448
T3 sequence (Q8N448 334-432, limits assumed, looked up): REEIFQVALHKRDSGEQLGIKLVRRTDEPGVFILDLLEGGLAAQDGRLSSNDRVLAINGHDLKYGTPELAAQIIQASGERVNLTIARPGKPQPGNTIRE

NHERF3_4, Q5T2W1 = biological target: T4, NHERF3_4, Q5T2W1
T4 sequence (Q5T2W1 373-468, limits assumed, looked up): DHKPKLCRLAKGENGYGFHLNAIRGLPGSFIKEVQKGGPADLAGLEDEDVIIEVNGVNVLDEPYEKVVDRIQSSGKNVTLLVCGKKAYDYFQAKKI

RAPGEF6, Q8TEU7 = biological target: T5, RAPGEF6, Q8TEU7
T5 sequence (Q8TEU7 525-625, limits assumed, looked up): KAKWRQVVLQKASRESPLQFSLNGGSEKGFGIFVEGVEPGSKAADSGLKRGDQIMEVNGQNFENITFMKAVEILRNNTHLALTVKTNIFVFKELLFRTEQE

MPDZ_12, O75970 = biological target: T6, MPDZ_12, O75970
T6 sequence (O75970 1857-1958, limits assumed, looked up): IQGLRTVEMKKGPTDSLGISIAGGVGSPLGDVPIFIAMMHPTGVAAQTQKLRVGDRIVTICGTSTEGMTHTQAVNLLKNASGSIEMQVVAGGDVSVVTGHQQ

APBA2_2, Q99767 = biological target: T7, APBA2_2, Q99767
T7 sequence (Q99767 654-744, limits assumed, looked up): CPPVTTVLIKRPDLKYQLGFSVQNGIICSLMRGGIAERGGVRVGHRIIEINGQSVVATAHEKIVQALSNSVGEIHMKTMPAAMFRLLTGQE

PTPN13_1, Q12923 = biological target: T8, PTPN13_1, Q12923
T8 sequence (Q12923 1088-1188, limits assumed, looked up): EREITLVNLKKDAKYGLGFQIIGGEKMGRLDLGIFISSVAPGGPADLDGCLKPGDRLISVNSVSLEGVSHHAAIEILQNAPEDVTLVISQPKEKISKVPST

AHNAK1, Q09666 = biological target: AHNAK1, Q09666
APBA3_1, O96018 = biological target: T9, APBA3_1, O96018
T9 sequence (O96018 389-490, limits assumed, looked up): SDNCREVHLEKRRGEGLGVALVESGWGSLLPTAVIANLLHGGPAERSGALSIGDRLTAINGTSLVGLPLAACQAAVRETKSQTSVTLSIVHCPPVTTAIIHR

LIMK2, P53671 = biological target: LIMK2, P53671
SHANK1, Q9Y566 = biological target: T10, SHANK1, Q9Y566
T10 sequence (Q9Y566 658-767, limits assumed, looked up): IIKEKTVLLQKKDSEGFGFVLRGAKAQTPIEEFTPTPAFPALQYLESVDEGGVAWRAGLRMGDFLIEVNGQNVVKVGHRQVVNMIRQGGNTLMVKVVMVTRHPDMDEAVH

PTPN3, P26045 = biological target: PTPN3, P26045
LNX1_2, Q8TBB1 = biological target: LNX1_2, Q8TBB1
DLG4_3, P78352 = biological target: DLG4_3, P78352
Inadl_1, Q8NI35 = biological target: Inadl_1, Q8NI35
MAGI2_6, Q86UL8 = biological target: MAGI2_6, Q86UL8
FRMPD4, Q14CM0 = biological target: FRMPD4, Q14CM0
Inadl_3, Q8NI35 = biological target: Inadl_3, Q8NI35
DLG1_1, Q12959 = biological target: DLG1_1, Q12959
LNX1_1, Q8TBB1 = biological target: LNX1_1, Q8TBB1
HTRA4, P83105 = biological target: T11, HTRA4, P83105
T11 sequence (P83105 378-476, limits assumed, looked up): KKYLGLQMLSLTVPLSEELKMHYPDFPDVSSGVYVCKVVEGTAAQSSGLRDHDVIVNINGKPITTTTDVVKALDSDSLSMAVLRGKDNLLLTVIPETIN

Inadl_9, Q8NI35 = biological target: Inadl_9, Q8NI35
MAGI2_5, Q86UL8 = biological target: MAGI2_5, Q86UL8
DLG4_2, P78352 = biological target: DLG4_2, P78352
[1] = plain residues with an end cap or a label only (N-terminal biotin on a linker: ado-ado)
[2] = plain residues with an end cap or a label only (N-terminal biotin on a linker: ahx)

Sequence of Inadl_3, Q8NI35 (Q8NI35 359-469): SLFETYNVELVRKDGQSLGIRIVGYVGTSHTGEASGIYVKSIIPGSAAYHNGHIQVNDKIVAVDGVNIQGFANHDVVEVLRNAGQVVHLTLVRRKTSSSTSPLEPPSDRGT
Sequence of LNX1_2, Q8TBB1 (Q8TBB1 371-470): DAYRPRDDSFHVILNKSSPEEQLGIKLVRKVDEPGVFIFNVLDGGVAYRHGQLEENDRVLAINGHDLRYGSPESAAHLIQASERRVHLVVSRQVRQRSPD
Sequence of DLG4_2, P78352 (P78352 155-259): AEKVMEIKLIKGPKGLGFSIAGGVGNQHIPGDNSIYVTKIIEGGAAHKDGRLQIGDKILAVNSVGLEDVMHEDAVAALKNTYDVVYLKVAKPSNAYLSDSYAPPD
Sequence of DLG4_3, P78352 (P78352 306-403): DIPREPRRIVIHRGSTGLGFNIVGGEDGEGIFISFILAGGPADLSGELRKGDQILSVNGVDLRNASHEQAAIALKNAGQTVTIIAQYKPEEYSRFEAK
Sequence of AHNAK1, Q09666 (Q09666 4-100): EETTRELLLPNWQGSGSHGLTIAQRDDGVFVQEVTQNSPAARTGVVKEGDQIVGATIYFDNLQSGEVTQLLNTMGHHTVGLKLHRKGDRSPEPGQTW
Sequence of DLG2_2, Q15700 (Q15700 189-283): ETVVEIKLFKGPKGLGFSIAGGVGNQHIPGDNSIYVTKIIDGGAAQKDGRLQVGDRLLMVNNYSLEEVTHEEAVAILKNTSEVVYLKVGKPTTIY
Sequence of PTPN3, P26045 (P26045 505-587): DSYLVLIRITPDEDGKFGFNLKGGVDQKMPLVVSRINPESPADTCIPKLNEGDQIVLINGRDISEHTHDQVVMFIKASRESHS
Sequence of Inadl_1, Q8NI35 (Q8NI35 113-229): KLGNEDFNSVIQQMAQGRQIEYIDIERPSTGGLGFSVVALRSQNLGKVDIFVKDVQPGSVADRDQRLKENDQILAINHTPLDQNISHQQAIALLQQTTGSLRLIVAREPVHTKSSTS
Sequence of Inadl_9, Q8NI35 (Q8NI35 1530-1615): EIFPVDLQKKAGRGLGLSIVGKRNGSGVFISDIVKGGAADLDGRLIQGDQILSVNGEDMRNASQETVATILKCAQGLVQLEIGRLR
Sequence of MAGI2_6, Q86UL8 (Q86UL8 1141-1229): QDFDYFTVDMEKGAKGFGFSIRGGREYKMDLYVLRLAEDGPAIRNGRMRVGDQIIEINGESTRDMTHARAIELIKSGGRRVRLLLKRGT
Sequence of PDZRN4_1, Q6ZMN7 (Q6ZMN7 213-318): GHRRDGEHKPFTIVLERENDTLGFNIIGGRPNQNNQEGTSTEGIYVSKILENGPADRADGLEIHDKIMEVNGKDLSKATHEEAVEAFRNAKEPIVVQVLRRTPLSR
Sequence of LIMK2, P53671 (P53671 143-248): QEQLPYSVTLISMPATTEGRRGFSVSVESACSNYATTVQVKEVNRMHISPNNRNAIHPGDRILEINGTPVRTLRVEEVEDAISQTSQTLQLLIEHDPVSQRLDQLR
Sequence of MAGI2_5, Q86UL8 (Q86UL8 915-1017): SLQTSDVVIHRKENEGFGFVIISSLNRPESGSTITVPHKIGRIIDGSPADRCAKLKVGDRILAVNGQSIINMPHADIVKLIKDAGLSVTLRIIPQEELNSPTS
Sequence of LNX1_1, Q8TBB1 (Q8TBB1 261-371): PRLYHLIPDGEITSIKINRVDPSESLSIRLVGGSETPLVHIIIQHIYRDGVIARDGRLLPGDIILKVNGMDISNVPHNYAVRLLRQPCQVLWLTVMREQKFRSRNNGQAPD
Sequence of FRMPD4, Q14CM0 (Q14CM0 67-160): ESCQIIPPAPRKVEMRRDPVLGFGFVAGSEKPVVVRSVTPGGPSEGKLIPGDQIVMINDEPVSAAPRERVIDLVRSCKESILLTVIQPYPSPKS

## VLYPREGTEV [FOXI1, Q12951]
PDZD7_3, Q9H5P4; [1]
  pKd: 3.99
DLG2_2, Q15700; [1]
  pKd: 4.45
PDZRN4_1, Q6ZMN7; [1]
  pKd: 4.25
GRIP1_5, Q9Y3R0; [1]
  pKd: below the threshold
LNX2_2, Q8N448; [1]
  pKd: 4.22
NHERF3_4, Q5T2W1; [1]
  pKd: below the threshold
RAPGEF6, Q8TEU7; [1]
  pKd: below the threshold
MPDZ_12, O75970; [1]
  pKd: below the threshold
APBA2_2, Q99767; [1]
  pKd: below the threshold
PTPN13_1, Q12923; [1]
  pKd: below the threshold
AHNAK1, Q09666; [1]
  pKd: below the threshold
APBA3_1, O96018; [1]
  pKd: below the threshold
LIMK2, P53671; [1]
  pKd: below the threshold
SHANK1, Q9Y566; [1]
  pKd: 3.49
PTPN3, P26045; [1]
  pKd: 4.76
LNX1_2, Q8TBB1; [1]
  pKd: 3.6
DLG4_3, P78352; [1]
  pKd: 3.57
Inadl_1, Q8NI35; [1]
  pKd: below the threshold
MAGI2_6, Q86UL8; [1]
  pKd: 4.46
FRMPD4, Q14CM0; [1]
  pKd: 3.51
Inadl_3, Q8NI35; [1]
  pKd: 3.72
DLG1_1, Q12959; [1]
  pKd: 4.4
LNX1_1, Q8TBB1; [1]
  pKd: 4.17
HTRA4, P83105; [1]
  pKd: 4.29
Inadl_9, Q8NI35; [1]
  pKd: 4.03
MAGI2_5, Q86UL8; [1]
  pKd: 4.09
DLG4_2, P78352; [1]
  pKd: 4.62

## MHIQEKGFHV [EPHA6, Q9UF33]
PDZD7_3, Q9H5P4; [1]
  pKd: below the threshold
DLG2_2, Q15700; [1]
  pKd: below the threshold
PDZRN4_1, Q6ZMN7; [1]
  pKd: below the threshold
GRIP1_5, Q9Y3R0; [1]
  pKd: below the threshold
LNX2_2, Q8N448; [1]
  pKd: 4.09
NHERF3_4, Q5T2W1; [1]
  pKd: below the threshold
RAPGEF6, Q8TEU7; [1]
  pKd: below the threshold
MPDZ_12, O75970; [1]
  pKd: below the threshold
APBA2_2, Q99767; [1]
  pKd: below the threshold
PTPN13_1, Q12923; [1]
  pKd: below the threshold
AHNAK1, Q09666; [1]
  pKd: below the threshold
APBA3_1, O96018; [1]
  pKd: below the threshold
LIMK2, P53671; [1]
  pKd: below the threshold
SHANK1, Q9Y566; [1]
  pKd: below the threshold
PTPN3, P26045; [1]
  pKd: below the threshold
LNX1_2, Q8TBB1; [1]
  pKd: 3.77
DLG4_3, P78352; [1]
  pKd: below the threshold
Inadl_1, Q8NI35; [1]
  pKd: below the threshold
MAGI2_6, Q86UL8; [1]
  pKd: below the threshold
FRMPD4, Q14CM0; [1]
  pKd: 3.77
Inadl_3, Q8NI35; [1]
  pKd: below the threshold
DLG1_1, Q12959; [1]
  pKd: below the threshold
LNX1_1, Q8TBB1; [1]
  pKd: below the threshold
HTRA4, P83105; [1]
  pKd: 3.49
Inadl_9, Q8NI35; [1]
  pKd: below the threshold
MAGI2_5, Q86UL8; [1]
  pKd: below the threshold
DLG4_2, P78352; [1]
  pKd: below the threshold

## SLNANEVEWF [RNF130, Q86XS8]
PDZD7_3, Q9H5P4; [1]
  pKd: 4.15
DLG2_2, Q15700; [1]
  pKd: below the threshold
PDZRN4_1, Q6ZMN7; [1]
  pKd: below the threshold
GRIP1_5, Q9Y3R0; [1]
  pKd: below the threshold
LNX2_2, Q8N448; [1]
  pKd: 3.7
NHERF3_4, Q5T2W1; [1]
  pKd: below the threshold
RAPGEF6, Q8TEU7; [1]
  pKd: 3.61
MPDZ_12, O75970; [1]
  pKd: below the threshold
APBA2_2, Q99767; [1]
  pKd: below the threshold
PTPN13_1, Q12923; [1]
  pKd: 3.5
AHNAK1, Q09666; [1]
  pKd: below the threshold
APBA3_1, O96018; [1]
  pKd: 3.55
LIMK2, P53671; [1]
  pKd: 3.5
SHANK1, Q9Y566; [1]
  pKd: 3.82
PTPN3, P26045; [1]
  pKd: 4.36
LNX1_2, Q8TBB1; [1]
  pKd: below the threshold
DLG4_3, P78352; [1]
  pKd: below the threshold
Inadl_1, Q8NI35; [1]
  pKd: 3.52
MAGI2_6, Q86UL8; [1]
  pKd: 3.81
FRMPD4, Q14CM0; [1]
  pKd: 3.5
Inadl_3, Q8NI35; [1]
  pKd: below the threshold
DLG1_1, Q12959; [1]
  pKd: below the threshold
LNX1_1, Q8TBB1; [1]
  pKd: 3.75
HTRA4, P83105; [1]
  pKd: 3.81
Inadl_9, Q8NI35; [1]
  pKd: below the threshold
MAGI2_5, Q86UL8; [1]
  pKd: 3.51
DLG4_2, P78352; [1]
  pKd: 3.51

## RDPPAEWTRV [PTPN18, Q99952]
PDZD7_3, Q9H5P4; [1]
  pKd: 4.83
DLG2_2, Q15700; [1]
  pKd: 4.01
PDZRN4_1, Q6ZMN7; [1]
  pKd: below the threshold
GRIP1_5, Q9Y3R0; [1]
  pKd: below the threshold
LNX2_2, Q8N448; [1]
  pKd: 5.15
NHERF3_4, Q5T2W1; [1]
  pKd: below the threshold
RAPGEF6, Q8TEU7; [1]
  pKd: below the threshold
MPDZ_12, O75970; [1]
  pKd: 3.66
APBA2_2, Q99767; [1]
  pKd: below the threshold
PTPN13_1, Q12923; [1]
  pKd: below the threshold
AHNAK1, Q09666; [1]
  pKd: below the threshold
APBA3_1, O96018; [1]
  pKd: below the threshold
LIMK2, P53671; [1]
  pKd: below the threshold
SHANK1, Q9Y566; [1]
  pKd: 5.05
PTPN3, P26045; [1]
  pKd: below the threshold
LNX1_2, Q8TBB1; [1]
  pKd: 3.47
DLG4_3, P78352; [1]
  pKd: below the threshold
Inadl_1, Q8NI35; [1]
  pKd: below the threshold
MAGI2_6, Q86UL8; [1]
  pKd: 4.09
FRMPD4, Q14CM0; [1]
  pKd: 4.07
Inadl_3, Q8NI35; [1]
  pKd: below the threshold
DLG1_1, Q12959; [1]
  pKd: 4.09
LNX1_1, Q8TBB1; [1]
  pKd: 3.73
HTRA4, P83105; [1]
  pKd: 4.01
Inadl_9, Q8NI35; [1]
  pKd: 3.66
MAGI2_5, Q86UL8; [1]
  pKd: 4.72
DLG4_2, P78352; [1]
  pKd: 4.26

## EKQAKGDTEF [CACYBP, Q9HB71]
PDZD7_3, Q9H5P4; [2]
  pKd: below the threshold
DLG2_2, Q15700; [2]
  pKd: below the threshold
PDZRN4_1, Q6ZMN7; [2]
  pKd: below the threshold
GRIP1_5, Q9Y3R0; [2]
  pKd: below the threshold
LNX2_2, Q8N448; [2]
  pKd: below the threshold
NHERF3_4, Q5T2W1; [2]
  pKd: below the threshold
RAPGEF6, Q8TEU7; [2]
  pKd: below the threshold
MPDZ_12, O75970; [2]
  pKd: below the threshold
APBA2_2, Q99767; [2]
  pKd: below the threshold
PTPN13_1, Q12923; [2]
  pKd: below the threshold
AHNAK1, Q09666; [2]
  pKd: below the threshold
APBA3_1, O96018; [2]
  pKd: below the threshold
LIMK2, P53671; [2]
  pKd: below the threshold
SHANK1, Q9Y566; [2]
  pKd: below the threshold
PTPN3, P26045; [2]
  pKd: 4.25
LNX1_2, Q8TBB1; [2]
  pKd: below the threshold
DLG4_3, P78352; [2]
  pKd: below the threshold
Inadl_1, Q8NI35; [2]
  pKd: below the threshold
MAGI2_6, Q86UL8; [2]
  pKd: below the threshold
FRMPD4, Q14CM0; [2]
  pKd: 3.55
Inadl_3, Q8NI35; [2]
  pKd: below the threshold
DLG1_1, Q12959; [2]
  pKd: below the threshold
LNX1_1, Q8TBB1; [2]
  pKd: below the threshold
HTRA4, P83105; [2]
  pKd: below the threshold
Inadl_9, Q8NI35; [2]
  pKd: below the threshold
MAGI2_5, Q86UL8; [2]
  pKd: below the threshold
DLG4_2, P78352; [2]
  pKd: below the threshold
